Reference: paper PMC9104438, “Application of a Fluorescence Anisotropy-Based Assay to Quantify Transglutaminase 2 Activity in Cell Lysates” (International Journal of Molecular Sciences, 2022)

Legend:
Test in all cases: FA-based assay, kinetic characterization of acyl donor DMC with R-I-Cad
Assay type in all cases: biochemical
hTGase 3 = target: T1, hTGase 3 (Homo sapiens, UniProt Q08188); parameters: purchased Zedira T013; conditions: hTGase 3 5 µg/mL, R-I-Cad 0.74 µM, mean (SEM)
T1 sequence (Q08188 2-467 limits assumed): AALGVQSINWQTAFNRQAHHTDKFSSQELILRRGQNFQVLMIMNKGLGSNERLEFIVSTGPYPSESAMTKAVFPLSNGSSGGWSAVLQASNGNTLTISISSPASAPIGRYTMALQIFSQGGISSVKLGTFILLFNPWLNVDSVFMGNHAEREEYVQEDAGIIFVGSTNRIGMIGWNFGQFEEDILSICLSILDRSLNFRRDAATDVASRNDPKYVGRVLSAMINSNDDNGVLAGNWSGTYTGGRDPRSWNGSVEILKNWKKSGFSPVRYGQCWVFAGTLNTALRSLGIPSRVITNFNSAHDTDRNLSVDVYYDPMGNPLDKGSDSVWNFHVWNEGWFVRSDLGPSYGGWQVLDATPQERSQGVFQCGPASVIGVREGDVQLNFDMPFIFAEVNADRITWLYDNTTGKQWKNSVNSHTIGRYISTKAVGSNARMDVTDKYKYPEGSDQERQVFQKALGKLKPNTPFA
T1 sequence (Q08188 468-693 partner limits assumed): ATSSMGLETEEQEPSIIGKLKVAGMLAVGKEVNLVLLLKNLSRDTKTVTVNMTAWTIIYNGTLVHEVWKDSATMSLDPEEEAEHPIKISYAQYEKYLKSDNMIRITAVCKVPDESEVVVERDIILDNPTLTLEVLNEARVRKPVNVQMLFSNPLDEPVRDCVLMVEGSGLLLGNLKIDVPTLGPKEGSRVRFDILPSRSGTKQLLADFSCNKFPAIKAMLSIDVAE
Procedure: (§1) For the kinetic characterization of DMC (Figure 1B) in the presence of a fixed concentration of R-I-Cad (0.74 µM), eight different concentrations of DMC (0.3–300 µM) were used (2–3 separate experiments, each performed in duplicate). The corresponding stock solutions of DMC and R-I-Cad were prepared in assay buffer A and DMSO, respectively. […] Values for Km, Ki and Vmax were calculated according to the equation of substrate inhibition (Equation (2)). (2) v=Vmax∗[S]/Km+[S]∗(1+[S]/Ki)

hTGase 6 = target: T2, hTGase 6 (Homo sapiens, UniProt O95932); parameters: purchased Zedira T021; conditions: hTGase 6 5 µg/mL, R-I-Cad 0.74 µM, mean (SEM)
T2 sequence (O95932 1-706): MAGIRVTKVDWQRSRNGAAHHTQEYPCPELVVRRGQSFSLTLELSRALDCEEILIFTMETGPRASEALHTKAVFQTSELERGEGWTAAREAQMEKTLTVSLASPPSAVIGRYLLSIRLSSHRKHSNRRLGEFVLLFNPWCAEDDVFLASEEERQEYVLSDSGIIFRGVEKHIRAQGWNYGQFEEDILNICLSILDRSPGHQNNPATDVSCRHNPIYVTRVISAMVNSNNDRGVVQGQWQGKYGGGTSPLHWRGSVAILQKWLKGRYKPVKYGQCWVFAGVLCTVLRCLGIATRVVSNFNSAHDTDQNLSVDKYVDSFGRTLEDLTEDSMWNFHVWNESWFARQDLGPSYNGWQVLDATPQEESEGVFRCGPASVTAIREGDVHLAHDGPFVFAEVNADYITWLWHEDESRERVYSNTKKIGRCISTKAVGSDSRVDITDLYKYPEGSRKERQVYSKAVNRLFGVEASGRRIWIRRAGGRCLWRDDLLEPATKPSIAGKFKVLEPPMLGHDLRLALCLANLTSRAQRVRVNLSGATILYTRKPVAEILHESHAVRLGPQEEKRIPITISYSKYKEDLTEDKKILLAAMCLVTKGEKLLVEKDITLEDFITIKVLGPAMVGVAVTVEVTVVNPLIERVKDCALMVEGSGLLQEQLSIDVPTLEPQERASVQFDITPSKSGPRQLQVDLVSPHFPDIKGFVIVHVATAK
Procedure: as §1

hFXIIIa = target: T3, hFXIIIa (Homo sapiens, UniProt P00488); parameters: purchased Zedira T070; conditions: hFXIIIa 5 µg/mL, R-I-Cad 0.74 µM, mean (SEM)
T3 sequence (P00488 39-732 limits assumed): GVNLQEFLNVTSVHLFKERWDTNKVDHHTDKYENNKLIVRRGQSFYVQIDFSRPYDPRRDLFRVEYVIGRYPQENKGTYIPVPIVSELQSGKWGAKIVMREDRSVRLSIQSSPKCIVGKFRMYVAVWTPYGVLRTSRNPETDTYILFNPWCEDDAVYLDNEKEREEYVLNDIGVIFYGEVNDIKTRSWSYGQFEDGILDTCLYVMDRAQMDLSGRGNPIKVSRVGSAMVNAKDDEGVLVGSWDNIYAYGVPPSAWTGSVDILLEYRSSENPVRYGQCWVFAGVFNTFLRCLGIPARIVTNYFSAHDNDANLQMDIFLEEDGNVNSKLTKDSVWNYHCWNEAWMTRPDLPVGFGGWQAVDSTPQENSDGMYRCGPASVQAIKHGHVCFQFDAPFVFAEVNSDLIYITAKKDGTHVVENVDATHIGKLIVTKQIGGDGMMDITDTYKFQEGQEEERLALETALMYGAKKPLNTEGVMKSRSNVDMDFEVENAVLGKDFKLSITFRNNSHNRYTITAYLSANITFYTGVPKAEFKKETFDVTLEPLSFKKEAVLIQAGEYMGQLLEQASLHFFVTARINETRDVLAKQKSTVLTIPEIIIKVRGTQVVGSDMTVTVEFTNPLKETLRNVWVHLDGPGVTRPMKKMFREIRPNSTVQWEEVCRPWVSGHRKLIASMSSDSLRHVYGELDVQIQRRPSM
Procedure: as §1

[1] = read-out: Ki (substrate inhibition)

Ki (hTGase 3; [1]): 571 µM
Ki (hTGase 6; [1]): 189 µM
Ki (hFXIIIa; [1]): 135 µM
Substance: N,N-dimethylated casein [DMC]
Km (hTGase 3): 6.29 µM
Vmax (hTGase 3; pH 8.0, 30 °C): 5.80 (0.09) mA mL s^−1 mg^−1
Km (hTGase 6): 16.6 µM
Vmax (hTGase 6; pH 8.0, 30 °C): 27.1 (4.1) mA mL s^−1 mg^−1
Km (hFXIIIa): 17.5 µM
Vmax (hFXIIIa; pH 8.0, 30 °C): 16.0 (1.1) mA mL s^−1 mg^−1
